assay: soluble on expression in E. coli; label from the status in PepcDB or PDB records

Q: With “MSTLELHHIGKSYQSVMVLDRIDLHVPPGSRTAIVGPSGSGKTTLLRIIAGFETPDAGKVILQGKAMFDGTTYVPAHKRGIGFVPQDGALFPHFTVAGNIGYGLKGSQRDKERRINELMDMVALDRRLSALWPHEISGGQQQRVALARALAQRPVLMLLDEPFSALDTALRASTRKAVAELLSEANIASILVTHDQTEALSFADQVAVMRAGKLAHVGPPQELYLRPVDEPTATFLGETLMLTAQLGTGLAHCALGQVKVDNPHRRGEARIMLRPEQITLTPLRPEQYNAASCLAKVIAIDFAGFISTLTLQIISSGETIEIKTISREDLHVGLTVGLDIMGQAHIFAE” as the sequence, how does the “soluble on expression in E. coli” value read?
A: not soluble

Q: For “GPGSMFDLTGRKALVTGATGGLGEAIARALHAQGAIVGLHGTREEKLKELAAELGERIFVFPANLSDREAVKALGQKAEEEMGGVDILVNNAGITRDGLFVRMSDEDWDAVLTVNLTSVFNLTRELTHPMMRRRNGRIINITSIVGVTGNPGQANYCASKAGLIGFSKSLAQEIASRNVTVNCIAPGFIESAMTGKLNEKQKDAIMGNIPMKRMGVGADIAAAVVYLASDEAAYVTGQTLHVNGGMAMI”, which “soluble on expression in E. coli” value is on record?
A: soluble

Q: Which “soluble on expression in E. coli” value does the source give for “MTAINFNSIYTTYYRRAFLFTLSYVHNDLVAEDIVSEAIIYLWELSKKQEIPSIEAVLITYIRSKSLNYLKHLQVQENVYQNLTDKGQRELEIRISTLEACDPKEVMSEELRSKVKTLLAGMPEKTRIAFISDRLDGKSHKEIAEELGISVKGVEYHISKAVKLLRDNLKEYAPFLIFFI” here?
A: not soluble

Q: Which “soluble on expression in E. coli” value does the source give for “MGSDKIHHHHHHMTPNPRHWARELWQRSRDRGLQTHIDVLVDATGLDDYPLLAEHARQSDPPALFKLLEQTPEAALADEGPLLLRLEDGHAAWLDELLERIDCRRHLMLLFSPWPLPRLGEHLRSCTQAEWNQGRSSGVLRFYEPGLFMAVSDMLDPRQSCYLHAPVSSWHWLDRDGRPRALAGHYQAHETPPLQAALRLEAHQVAALRAWSEAEAYRREYFVLPREHGLGSQESLLQHLVQAHLAADRQGLQDFDQRDAFVAQWLREQTPGPGFSPAGTSRA” here?
A: not soluble

Q: For “KIPEFRDVLISTIGGPHAKLGYEIARALVEDKSGRIKLLYVGSSEKEREKAEKVFEEAMEILNGLNVEREFAISSSPSDVVAREAESFDLVIVGASERTFLKNFLTGLFPEKVVMKTSKTVAMTRKWVGLLNR”, which “soluble on expression in E. coli” value is on record?
A: not soluble

Q: For “MSLSERIIVTYQVAAAPAEIAARAEALAIEQSVECPLAAVTEQQIRDEIVGRVEAIAPIGETRFSVRVSLASATAPAEPGQLLNMLFGNSSIQPDVTLADVELPPAYPAAFGGPKLGISGLRAKLGAPRRALTGSALKPQGLAPEALAGLAHRLALGGVDLIKDDHGIADQAFSPFAARVPAVARAMREACAVRGAAMLYAPHVSGSLDDMRRQLDIVRREGLSVVMLMPMIVGLANFHLIAKEAEGLIVLAHPSLAGAQRIAPDLLLGKLFRLLGADATIFPHYGGRFAYTPETCRALADAARRDWHDLKPCLPVPAGGIAIDRIKELLAFYGTDVMLLIGGSLLAAGEQLTEHAARFTAEVASHGQEGHHHHHH”, which “soluble on expression in E. coli” value is on record?
A: soluble

Q: Which “soluble on expression in E. coli” value does the source give for “MSGRYNMNIILGATGQVGSMLVDNLLGKGQPVRAVVRDGLKAQGLKNKGVEVKIADYLDVEALKKAFQGGSSVFLLTPENPESENFINEIQRIMSNYREAVLSSGISKIVGLSSMGAQHKSGTGNLMASYMLEHAFSDLEIEQVFVRPAYYFSNWLGYLELVREYGILPTFFPPELELPMIAPPDVAGFLSDVMTCKTQQERIYEISGPHDYSSSDIAKIFGDVLNKNVTLQQVLPEEWENTLIQAGFSKDGTRNLMLMTKAVIDGKTKNETTNRLRFSTNFKNYLQSVILNMS” here?
A: not soluble

Q: With “MAKPPPGKSSGRGSINDDEGKIEVESGDIPHVTDTEIKDAAEKVRETAVSKGKSERDKAEGDYTIMNPDSMIRPDFASDEEIEEQAKWIPGRFEPYITPNPLDIETLVKRADTIATVFNCSGNNLTDSRLSGAYEIAMTRSDEWEGKAGENFEKYMASLPTIMGNHGKVANMLQIEAQKMIELYKNRRKGAKDIADQAVKAIEAIDDSKGEGLE” as the sequence, how does the “soluble on expression in E. coli” value read?
A: not soluble

Q: For “AHHHHHHGSGLISDADKKVIKEEFFSKMVNPVKLIVFVRKDHCQYCDQLKQLVQELSELTDKLSYEIVDFDTPEGKELAKRYRIDRAPATTITQDGKDFGVRYFGLPAGHEFAAFLEDIVDVSREETNLMDETKQAIRNIDQDVRILVFVTPTCPYCPLAVRMAHKFAIENTKAGKGKILGDMVEAIEYPEWADQYNVMAVPKIVIQVNGEDRVEFEGAYPEKMFLEKLLSALS”, which “soluble on expression in E. coli” value is on record?
A: soluble

Q: Which “soluble on expression in E. coli” value does the source give for “MKIGIIGATGRAGSRILEEAKNRGHEVTAIVRNAGKITQTHKDINILQKDIFDLTLSDLSDQNVVVDAYGISPDEAEKHVTSLDHLISVLNGTVSPRLLVVGGAASLQIDEDGNTLLESKGLREAPYYPTARAQAKQLEHLKSHQAEFSWTYISPSAMFEPGERTGDYQIGKDHLLFGSDGNSFISMEDYAIAVLDEIERPNHLNEHFTVAGKLEHHHHHH” here?
A: soluble

Q: Which “soluble on expression in E. coli” value does the source give for “MRDVLFLPFADGMELAVAADGSAAVGDKPGDVVSAPADVVAYFAARVALMELVSVGAEAKAVVLQNFIADDRWEALCRGVRRTCRELGIDLPITGSTESNFPTVQSALGVTAIGTVANERKRIGITPEEAKFAVIGRPLVGSAVLSHPEWVAPLPLFAALLRTPYIYELIPIGSKGIYYEWTQLLAANGRQGRACACPLPLFSSGGPATSVLVSYDPDGEREIKKQAGSLFFPLHVEW” here?
A: not soluble

Q: For “MGHHHHHHSHMFGYVVVNEQNSIVFLDGNEEFKTIFQSLIQSEITSRKSDLDSASSGVGSSTCTEEQESSLDHFKKPNVVFNSSEISHILLPLILLYRSTSEKTKDPITEMSSQFGTISISKFYHNYLVLVFANDDRKRIEVSQTIEHTIATLFGPLIAFCHTDLTTVKKPKEHLACALTRKLSYSPKC”, which “soluble on expression in E. coli” value is on record?
A: not soluble

Q: Which “soluble on expression in E. coli” value does the source give for “MRERKKYGKHIPKSLSSKINKRKLIQKNICTNYKTIKIIDIYENLPYNQLNNGRTKIKEIILANDVLVVLLISGISRAYNMINGEFLCEINPNNFSVVHTIVYNSYNNTLIIAYASFPAHLQCKVIDCNDLKHGITNSSKLGILFGT” here?
A: not soluble

Q: For “MSLKPLIKIETERTSLIYQVADNGRLYQKYLGKKLNHDSDIQYLPQGTEAYLTHGMEDYFEPAIHIRHNDNNSSLLLKYVDHSSNAIGNGVNETVITLKDDKYPVTVKLHYVAYGKENIIRTFTEISHEEKKPVILCKYASSMLHLNSSKYFLTEFSGDWAHEANVTERELAFGKKVIDTKLGARANMFVSPFFQLALDNPSQENAGEVLVGTIGWTGNFRFTFEVDNKNELRIISGINPYDSEYSLPAREVFRTPDFYFTYSTQGKGEASRNFHDWARNHQVKNGNDTRMTLLNNWESTYFDFDENKLIGLMDEATKLGVDMFLLDDGWFANKYPRSSDHQGLGDWEETADKLPNGVGRLVEEAQKKGIKFGIWIEPEMVNPKSELYEKHKDWVIHLPNRDEYYFRNQMVLDLSNPKVQDHVFGVVDNLMTKYPGIAFFKWDCNSPITNIYSVYLKDKQSHLYVDYVRGLYKVLDRIKAKYPNLPMMLCAGGGGRSDYEALKYFTEFWPSDNTDPIERLFIQWGYSQIFPSKTLCAHVTTWNRGTSIKFRTDVAMMCKLGFDIKLEDMNQNEHLYCDQAVKNYNRLKPVILEGDLYRLVSPYGSNHTSSMFVGKDKKTAAVFAFDIHPRYAEKTLPVRLQGLNADKKYRVKEINMMPGSGSSLKGNNQVFSGEYLMNVGLDLFTTQQLNSRLIEITEEGHHHHHH”, which “soluble on expression in E. coli” value is on record?
A: soluble

Q: For “MSNINIRVAHEQDAEELHSIMQIAFTPLRELGIDWPSVHADLEMVKDNLRQNTTFVLENEKEIISTITVCYSWSSVKPISGYPFVWWFATRPTYDGQGYGSQLLKYAEETFLRDTLKAAAVTLGTSARLHPWLLNIYEKRGYEIYAKHENDDGDLGVIMRKILIPEQFNDDILGRPPF”, which “soluble on expression in E. coli” value is on record?
A: not soluble

Q: For “MGSDKIHHHHHHMLWRLKGVPFVGFDVARVRGLYTSLGDGWTYLNSHQIPQVPERVASGVAAAFRTHAQISEVTSQPIAVDQLEAAREAVASLAGVDPDCVVLGPTRQFLAHTLARGLGGFVRRKAGVVLSRADADWLTAPFRSLDGVFSWAEPDLGTGMLPDWQYEKLVDGSTRLVVLSAAHPLLGTVAPVGKIVDKVRARSRAWVLVDATTYAAYRPLRLDEWEADIVMLDLGELGGPQISALIFRDTSMFPRLDRTVPLELPASSLPHGLLGGVPNLVRHLGNLDENAPSVVEAMGEMAKFHKGLFEHLVESLEGLHAVHIVGISGDAAGQDAAFLDRVPRLTFTMEGVPADMVYRRLVDNRLITTVSPADPLLEAMGVTEAGGSITIGLSPFSTYYEVDQLTRVLASLA”, which “soluble on expression in E. coli” value is on record?
A: not soluble

Q: For “MGSDKIHHHHHHMPTVERHIRGKWACDSCETLIQAPVPPQVIDKGIPTAGLLAQVLVAKYADHLPLYRQERMFGRAGLEIPRSTLAEWVGACGVQLQPLVDALRNTLLEHSVLHADETPVSMLAPGKKKTHKAYVWAYCTTPFADLKAAIYDFAPSRAGEHARTFLGDWRGKLVCDDYAGYKAGFGNGITEIGCMAHARRKFYDLHEANKSELAAKALEYIGGLYEIERETKDLPPDMRREIRQTKAKPLADALHQWMLAHRQKVPDGSGTAKALDYSLKRWEALTRYLDDGAVPIDNNWVENQIRPWALGRSNWLFAGSLRSGQRAAAVMTLIQSAKLNRHDPYAYLKDVLTRLPTQKNNAIDELLPHNWKPAIPNKV”, which “soluble on expression in E. coli” value is on record?
A: not soluble

Q: With “MANSAGSMADNSKTRVVVGMSGGVDSSVTALLLKEQGYDVIGIFMKNWDDTDENGVCTATEDYKDVAKVADQIGIPYYSVNFEKEYWDRVFEYFLAEYRLGRTPNPDVMCNKEIKFKAFLDYAMQLGADYVATGHYAQVETDENGVVHMLRGIDNNKDQTYFLSQLSQAQLAKTMFPLGGMEKSEVRAIAERAGLATAKKKDSTGVCFIGEKNFKEFLSNYLPAKKGNMVTEDGEIKGQHDGLMYYTIGQRQGLGIGGGGKTQEPWFVIGKDLTTNTLYVGQGFHHEKLYATHLEASEVHFTVDTPMPKEFDCTAKFRYRQADIPVHVSLSEDGTKATVTFKEPARAVTPGQAVVFYDGMECLGGGLIDRAYQDEKELQYVLEHHHHHH” as the sequence, how does the “soluble on expression in E. coli” value read?
A: not soluble

Q: With “MSDITLDIADFHWVTQILDTMDSGLIVLDPEYNVCVWNSFMQSYSGVLSQDILGQCLFDHFDELPRTWLETKLKASADLETRSFSSWENRPYLFKFNNFSPVSNSCDFMFQDIVITPLRSLSGEVSHIAIQVNDVSETARNRIHLRETNQHLSEISRKDGL” as the sequence, how does the “soluble on expression in E. coli” value read?
A: not soluble

Q: For “MFRVGILTVSDKGFRGERQDTTHLAIREVLAGGPFEVAAYELVPDEPPMIKKVLRLWADREGLDLILTNGGTGLAPRDRTPEATRELLDREVPGLAELMRLVGLRKTPMAALSRGVAGVRGRTLILNLPGSPKGARESLEAVLPVLPHALSLVTGKPWKEGHHE”, which “soluble on expression in E. coli” value is on record?
A: soluble

Q: With “MVFRKSLLKLAVFALGACVAFSNANAAEGKLESIKSKGQLIVGVKNDVPHYALLDQATGEIKGFEVDVAKLLAKSILGDDKKIKLVAVNAKTRGPLLDNGSVDAVIATFTITPERKRIYNFSEPYYQDAIGLLVLKEKKYKSLADMKGANIGVAQAATTKKAIGEAAKKIGIDVKFSEFPDYPSIKAALDAKRVDAFSVDKSILLGYVDDKSEILPDSFEPQSYGIVTKKDDPAFAKYVDDFVKEHKNEIDALAKKWGL” as the sequence, how does the “soluble on expression in E. coli” value read?
A: soluble

Q: With “MTKVERLLINYKTLEEFKKFKEYGIQELSMLEELQDNIIENDSTSPFYGIYFGDKLVARMSLYQVNGKSNPYFDNRQDYLELWKLEVLPGYQNRGYGRALVEFAKSFKMPIRTNPRMKSAEFWNKMNFKTVKYDMARDKGEDPLIWHPDMDREMTPGESA” as the sequence, how does the “soluble on expression in E. coli” value read?
A: soluble

From the DeepSol protein solubility set
